Measured values reported in patent US20130052176, “APTAMER FOR NGF AND USE THEREOF” (SHIONOGI & CO., LTD, published 2013).

What was measured:
[1] = biological target: T1, NGF (nerve growth factor) (human, UniProt P01138 P01138:122-241); test: cell_activity; neurite outgrowth, NGF 1.1 nM; TF-1 IC50 7.0 nM; details: tags: human NGF; chain copies: 2
Description: (§1) The neurite outgrowth inhibitory activity of the aptamer obtained in Example 1 was evaluated by using Neuroscreen-1 cell, which is a subclone of PC-12 cells.
(§2) The cells (2500 cells per well) were cultured for one day in an RPMI-1640 medium containing 2.5% horse serum and 1.25% fetal bovine serum in a 96 well flat-bottom plate coated with collagen type IV. […] Two days later, the cytoplasm and nuclei were stained using Cellomics Neurite Outgrowth Kit (manufactured by Thermo Scientific), and neurite length per cell was measured by Cellomics ArrayScan VTI (manufactured by Thermo Scientific). With the neurite length per cell obtained by the addition of NGF alone as inhibitory activity 0%, and that of the cell obtained by NGF free culture for 2 days as inhibitory activity 100%, the inhibitory activity of the aptamer was calculated from the neurite length per cell obtained by culturing with the addition of NGF and the aptamer in mixture. When the inhibitory activity was 0% or below, ‘0%’ is indicated.

NT-4/5 = biological target: T2, NT-4/5 (human, UniProt P34130 P34130:81-210); test: cell_activity; TF-1 TrkB proliferation; SPR showed very fast dissociation; details: tags: R&D Systems; chain copies: 2
T2 sequence: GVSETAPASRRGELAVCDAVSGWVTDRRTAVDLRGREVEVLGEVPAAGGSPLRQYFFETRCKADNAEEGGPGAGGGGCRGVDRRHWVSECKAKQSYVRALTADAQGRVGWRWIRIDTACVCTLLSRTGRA
Description: (§3) The physiological inhibitory activity of the aptamers represented by aptamer IDs: 26(2), 52, 63-65 against BDNF, NT-3, NT-4/5 was evaluated by a growth inhibition assay using TF-1 cells.
(§4) Human receptor genes (TrkB, TrkC, p75) for respective neurotrophic factors were introduced into TF-1 cells (ATCC Number:CRL-2003), which is a human erythroleukemic cell line, by using a retrovirus vector to give cells that highly express these receptors stably. TF-1 cells introduced with TrkB and p75 were used for the evaluation of inhibitory activity against BDNF, TF-1 cells introduced with TrkC and p75 were used for the evaluation against NT-3, and TF-1 cells introduced with TrkB alone were used for the evaluation against NT-4/5. These cells were suspended in an RPMI-1640 medium containing 20% fetal bovine serum, and seeded in a white 96 well flat-bottom plate at 1000 cells (50 μL) per well. […] With the amount of luminescence per well obtained by the addition of BDNF or NT-3 or NT-4/5 alone and culture of the cells for 3 days as inhibitory activity 0%, and that of the cell obtained by culture for 3 days without addition of BDNF or NT3 or NT-4/5 as inhibitory activity 100%, the inhibitory activity of the aptamer was calculated from the amount of luminescence per well obtained by culturing with the addition of BDNF or NT3 or NT-4/5 and the aptamer in mixture. […]

BDNF = biological target: T3, BDNF (human, UniProt P23560 P23560:129-247); test: cell_activity; TF-1 TrkB/p75 proliferation; SPR showed very fast dissociation; details: tags: R&D Systems; chain copies: 2
T3 sequence: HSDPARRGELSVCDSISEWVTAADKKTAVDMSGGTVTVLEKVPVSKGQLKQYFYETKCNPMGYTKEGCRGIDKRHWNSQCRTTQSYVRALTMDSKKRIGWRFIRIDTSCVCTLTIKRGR
Description: as §3, §4

[2] = biological target: T1, NGF (nerve growth factor); test: cell_activity; neurite outgrowth, NGF 0.38 nM; TF-1 IC50 0.131 nM; details: tags: human NGF; chain copies: 2
Description: as §1, §2

[3] = biological target: T1, NGF (nerve growth factor); test: cell_activity; neurite outgrowth, NGF 0.38 nM; TF-1 IC50 0.177 nM; details: tags: human NGF; chain copies: 2
Description: as §1, §2

[4] = biological target: T1, NGF (nerve growth factor); test: cell_activity; neurite outgrowth, NGF 0.38 nM; TF-1 IC50 0.158 nM; details: tags: human NGF; chain copies: 2
Description: as §1, §2

[5] = biological target: T1, NGF (nerve growth factor); test: cell_activity; neurite outgrowth, NGF 0.38 nM; TF-1 IC50 0.203 nM; details: tags: human NGF; chain copies: 2
Description: as §1, §2

[6] = biological target: T1, NGF (nerve growth factor); test: cell_activity; neurite outgrowth, NGF 0.38 nM; TF-1 IC50 0.184 nM; details: tags: human NGF; chain copies: 2
Description: as §1, §2

T1 sequence (P01138 122-241, one chain of several): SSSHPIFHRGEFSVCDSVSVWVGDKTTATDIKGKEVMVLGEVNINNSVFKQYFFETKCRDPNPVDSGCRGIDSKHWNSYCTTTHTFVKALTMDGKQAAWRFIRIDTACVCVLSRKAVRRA

B1: aptamer ID 57(9) (mixed)
mixed: GGGAUAAAAAUAGAGTUUGATAAACACCUGUAUUAAAACCC
modifications: as ID 57 (5' cholesterol; 3' idT; dT16,dT21; 2'-F other pyrimidines and a37,a38; 2'-OMe purines except ribo a4,a7,g30) plus PS between 29 and 30
IC50 [1]: < 3 nM

B2: aptamer ID 26(2) (ssRNA)
RNA: GGGAGACUCGCCAGAGUUGAAAGAAACCCAAAUAAGUGUGCGCAC
modifications: 5' and 3' idT; 2'-F all pyrimidines; 2'-OMe purines except ribo g3,g5,g19,a20,a21,a22,a24,a26
IC50 (NT-4/5): > 300 nM | IC50 (BDNF): > 1000 nM

B3: aptamer ID 26(29) (mixed)
RNA: B2 RNA
modifications: as 26(19) (5' and 3' idT; 2'-F pyrimidines; 2'-OMe purines except ribo g3,g19,a20,a26) but u37 is dT
IC50 [2]: 0.138 nM

B4: aptamer ID 26(26) (mixed)
RNA: B2 RNA
modifications: as 26(19) (5' and 3' idT; 2'-F pyrimidines; 2'-OMe purines except ribo g3,g19,a20,a26) but u17 is dT
IC50 [3]: 0.285 nM

B5: aptamer ID 26(27) (mixed)
RNA: B2 RNA
modifications: as 26(19) (5' and 3' idT; 2'-F pyrimidines; 2'-OMe purines except ribo g3,g19,a20,a26) but c29 is dC
IC50 [4]: 0.15 nM

B6: aptamer ID 26(25) (mixed)
RNA: B2 RNA
modifications: as 26(19) (5' and 3' idT; 2'-F pyrimidines; 2'-OMe purines except ribo g3,g19,a20,a26) but c12 is dC
IC50 [5]: 0.29 nM

B7: aptamer ID 26(28) (mixed)
RNA: B2 RNA
modifications: as 26(19) (5' and 3' idT; 2'-F pyrimidines; 2'-OMe purines except ribo g3,g19,a20,a26) but u33 is dT
IC50 [6]: 0.2 nM
